The values that follow come from the supplement of paper PMC5998384.

Series [1] deals with HeLa Kyoto. Description: solubility change mitosis vs G1/S (difference of NP-40 vs SDS log2 ratios) (log2 ratio difference); higher = more soluble in mitosis.
Series [2] deals with HeLa Kyoto. The series is described as follows: thermal stability score vs G1/S (z-score of summed log2 fold changes over temperatures); higher = more thermally stable than in G1/S.
In series [3] the test system is HeLa Kyoto. The series is described as follows: solubility in G1/S (NP-40 vs SDS abundance) (log2 ratio); higher = more soluble. The conditions noted are these: cell cycle stage: G1/S.
Where [4] appears, read: cell cycle stage: early G1 (4.5 h after nocodazole release).
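For solubility change mitosis vs G1/S (difference of NP-40 vs SDS log2 ratios) in this document: synchronized HeLa Kyoto cells (double thymidine block for G1/S, nocodazole release for mitosis), protein amounts in NP-40 versus SDS lysates quantified by mass spectrometry, three biological replicates.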
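For solubility in G1/S (NP-40 vs SDS abundance) in this document: HeLa Kyoto cells arrested at G1/S by double thymidine block, proteins quantified by TMT10plex mass spectrometry in mild NP-40 versus SDS extracts, three biological replicates.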
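For thermal stability score vs G1/S (z-score of summed log2 fold changes over temperatures) in this document: synchronized HeLa Kyoto cells, proteins quantified by TMT10plex mass spectrometry, three biological replicates, mitosis taken 0.5 h after nocodazole release, G1/S directly after double thymidine block.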

Take “MARACLQAVKYLMFAFNLLFWLGGCGVLGVGIWLAATQGSFATLSSSFPSLSAANLLIITGAFVMAIGFVGCLGAIKENKCLLLTFFLLLLLVFLLEATIAILFFAYTDKIDRYAQQDLKKGLHLYGTQGNVGLTNAWSIIQTDFRCCGVSNYTDWFEVYNATRVPDSCCLEFSESCGLHAPGTWWKAPCYETVKVWLQENLLAVGIFGLCTALVQILGLTFAMTMYCQVVKADTYCA [TSPAN4]”: in the series on HeLa Kyoto [1], the “solubility change mitosis (log2)” value came out at 0.125. The results for the thermal stability score in the series with HeLa Kyoto [2] (setting [4]) and in the series on HeLa Kyoto [2] (cell cycle stage: mitosis) were -5.28e-17 and 1.16e-18, respectively. Also, in the series on HeLa Kyoto [3], the “solubility in G1/S (log2)” value was -0.165.
As to “MATIEEIAHQIIEQQMGEIVTEQQTGQKIQIVTALDHNTQGKQFILTNHDGSTPSKVILARQDSTPGKVFLTTPDAAGVNQLFFTTPDLSAQHLQLLTDNSPDQGPNKVFDLCVVCGDKASGRHYGAVTCEGCKGFFKRSIRKNLVYSCRGSKDCIINKHHRNRCQYCRLQRCIAFGMKQDSVQCERKPIEVSREKSSNCAASTEKIYIRKDLRSPLTATPTFVTDSESTRSTGLLDSGMFMNIHPSGVKTESAVLMTSDKAESCQGDLSTLANVVTSLANLGKTKDLSQNSNEMSMIESLSNDDTSLCEFQEMQTNGDVSRAFDTLAKALNPGESTACQSSVAGMEGSVHLITGDSSINYTEKEGPLLSDSHVAFRLTMPSPMPEYLNVHYIGESASRLLFLSMHWALSIPSFQALGQENSISLVKAYWNELFTLGLAQCWQVMNVATILATFVNCLHNSLQQDKMSTERRKLLMEHIFKLQEFCNSMVKLCIDGYEYAYLKAIVLFSPDHPSLENMEQIEKFQEKAYVEFQDYITKTYPDDTYRLSRLLLRLPALRLMNATITEELFFKGLIGNIRIDSVIPHILKMEPADYNSQIIGHSI [NR2C1]”, in the series with HeLa Kyoto [1], the “solubility change mitosis (log2)” value was -0.0241. Moreover, the thermal stability score in the series on HeLa Kyoto [2] (setting [4]) is 0.319; with HeLa Kyoto [2] (cell cycle stage: mitosis), 0.185. Moreover, the “solubility in G1/S (log2)” value in the series on HeLa Kyoto [3] worked out at 0.173.
Taken in the same sequence, the figures for “MEEEDEEARALLAGGPDEADRGAPAAPGALPALCDPSRLAHRLLVLLLMCFLGFGSYFCYDNPAALQTQVKRDMQVNTTKFMLLYAWYSWPNVVLCFFGGFLIDRVFGIRWGTIIFSCFVCIGQVVFALGGIFNAFWLMEFGRFVFGIGGESLAVAQNTYAVSWFKGKELNLVFGLQLSMARIGSTVNMNLMGWLYSKIEALLGSAGHTTLGITLMIGGITCILSLICALALAYLDQRAERILHKEQGKTGEVIKLTDVKDFSLPLWLIFIICVCYYVAVFPFIGLGKVFFTEKFGFSSQAASAINSVVYVISAPMSPVFGLLVDKTGKNIIWVLCAVAATLVSHMMLAFTMWNPWIAMCLLGLSYSLLACALWPMVAFVVPEHQLGTAYGFMQSIQNLGLAIISIIAGMILDSRGYLFLEVFFIACVSLSLLSVVLLYLVNRAQGGNLNYSARQREEIKFSHTE [MFSD1]” were -0.327, -0.307, -0.166 and -0.268.
For “MEGVSALLARCPTAGLAGGLGVTACAAAGVLLYRIARRMKPTHTMVNCWFCNQDTLVPYGNRNCWDCPHCEQYNGFQENGDYNKPIPAQYLEHLNHVVSSAPSLRDPSQPQQWVSSQVLLCKRCNHHQTTKIKQLAAFAPREEGRYDEEVEVYRHHLEQMYKLCRPCQAAVEYYIKHQNRQLRALLLSHQFKRREADQTHAQNFSSAVKSPVQVILLRALAFLACAFLLTTALYGASGHFAPGTTVPLALPPGGNGSATPDNGTTPGAEGWRQLLGLLPEHMAEKLCEAWAFGQSHQTGVVALGLLTCLLAMLLAGRIRLRRIDAFCTCLWALLLGLHLAEQHLQAASPSWLDTLKFSTTSLCCLVGFTAAVATRKATGPRRFRPRRFFPGDSAGLFPTSPSLAIPHPSVGGSPASLFIPSPPSFLPLANQQLFRSPRRTSPSSLPGRLSRALSLGTIPSLTRADSGYLFSGSRPPSQVSRSGEFPVSDYFSLLSGSCPSSPLPSPAPSVAGSVASSSGSLRHRRPLISPARLNLKGQKLLLFPSPPGEAPTTPSSSDEHSPHNGSLFTMEPPHVPRKPPLQDVKHALDLRSKLERGSACSNRSIKKEDDSSQSSTCVVDTTTRGCSEEAATWRGRFGPSLVRGLLAVSLAANALFTSVFLYQSLR [TMEM201]”, the “solubility change mitosis (log2)” value with HeLa Kyoto [1] worked out at 0.283. Also, the thermal stability score was determined as 0.522 in the series with HeLa Kyoto [2] (setting [4]) and 0.638 in the series on HeLa Kyoto [2] (cell cycle stage: mitosis). In addition, the “solubility in G1/S (log2)” value with HeLa Kyoto [3] was -0.162.
For “MELRARGWWLLCAAAALVACARGDPASKSRSCGEVRQIYGAKGFSLSDVPQAEISGEHLRICPQGYTCCTSEMEENLANRSHAELETALRDSSRVLQAMLATQLRSFDDHFQHLLNDSERTLQATFPGAFGELYTQNARAFRDLYSELRLYYRGANLHLEETLAEFWARLLERLFKQLHPQLLLPDDYLDCLGKQAEALRPFGEAPRELRLRATRAFVAARSFVQGLGVASDVVRKVAQVPLGPECSRAVMKLVYCAHCLGVPGARPCPDYCRNVLKGCLANQADLDAEWRNLLDSMVLITDKFWGTSGVESVIGSVHTWLAEAINALQDNRDTLTAKVIQGCGNPKVNPQGPGPEEKRRRGKLAPRERPPSGTLEKLVSEAKAQLRDVQDFWISLPGTLCSEKMALSTASDDRCWNGMARGRYLPEVMGDGLANQINNPEVEVDITKPDMTIRQQIMQLKIMTNRLRSAYNGNDVDFQDASDDGSGSGSGDGCLDDLCSRKVSRKSSSSRTPLTHALPGLSEQEGQKTSAASCPQPPTFLLPLLLFLALTVARPRWR [GPC1]”, the “solubility change mitosis (log2)” value with HeLa Kyoto [1] is -0.378. Besides, the thermal stability score with HeLa Kyoto [2] (setting [4]) is 1.52; in the series with HeLa Kyoto [2] (cell cycle stage: mitosis), 3.51. Further, in the series on HeLa Kyoto [3], the “solubility in G1/S (log2)” value is -0.193.
